Experimental data: publication PMC3092483

What was measured:
full length t-SNAREs = assay: co-flotation
[1] = molecular target: GST-C2AB fusion protein of synaptotagmin I with the syt^B-IE mutation (I420E) (Drosophila); assay: pull-down
[2] = molecular target: GST-C2AB fusion protein of synaptotagmin I (wild type) (Drosophila); assay: pull-down
[3] = molecular target: GST-C2B fusion protein of synaptotagmin I (wild type) (Drosophila); assay: pull-down
[4] = molecular target: GST-C2B fusion protein of synaptotagmin I with the syt^B-IE mutation (I420E) (Drosophila); assay: pull-down

percent of wild type binding (% of wild type levels) (full length t-SNAREs)	fold increase of binding by Ca2+ over EGTA [1] [fold]	increase of binding by Ca2+ over EGTA [1] [units]	fold increase of binding by Ca2+ over EGTA [2] [fold]	increase of binding by Ca2+ over EGTA [2] [units]	increase of binding by Ca2+ over EGTA [3] [units]	increase of binding by Ca2+ over EGTA [4] [units]	Substance
70							synaptotagmin C2AB domain with the syt^B-IE mutation (I420E), as used in the co-flotation assay (domain or fragment)
	4.5	0.112	2.4	0.2	0.116	0.105	full length t-SNAREs (complex)
